According to paper PMC7979924 (2021):

B1: TDP-43 RRM2 (176–277aa.) (protein)
chain: KLPNSKQSQDEPLRSRKVFVGRCTEDMTEDELREFFSQYGDVMDVFIPKPFRAFAFVTFADDQIAQSLCGEDLIIKGISVHISNAEPKHNSNRQLERSGRFG
B2: TDP43 (RRM 1–2, 101–277aa.) (protein)
chain: QKTSDLIVLGLPWKTTEQDLKEYFSTFGEVLMVQVKKDLKTGHSKGFGFVRFTEYETQVKVMSQRHMIDGRWCDCKLPNSKQSQDEPLRSRKVFVGRCTEDMTEDELREFFSQYGDVMDVFIPKPFRAFAFVTFADDQIAQSLCGEDLIIKGISVHISNAEPKHNSNRQLERSGRFG
B3: FUS (RRM, 165–385aa.) (protein)
chain: SGGGGGGGGGGNYGQDQSSMSSGGGSGGGYGNQDQSGGGGSGGYGQQDRGGRGRGGSGGGGGGGGGGYNRSSGGYEPRGRGGGRGGRGGMGGSDRGGFNKFGGPRDQGSRHDSEQDNSDNNTIFVQGLGENVTIESVADYFKQIGIIKTNKKTGQPMINLYTDRETGKLKGEATVSFDDPPSAKAAIDWFDGKEFSGNPIKVSFATRRADFNRGGGNGRGG

What was measured:
Lin28-CSD (32–136 aa.) = target: T1, Lin28-CSD (32–136 aa.) (Homo sapiens (Human), UniProt Q9H9Z2); assay: NMR 1H-15N HSQC (peak heights); in presence of 20-nt poly(C) ssDNA; tests co-association on nucleic acid, not direct protein-protein binding
T1 chain: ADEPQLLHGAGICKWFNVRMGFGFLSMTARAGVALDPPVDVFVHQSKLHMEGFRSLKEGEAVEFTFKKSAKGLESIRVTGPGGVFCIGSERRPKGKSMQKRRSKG

YB-1-CSD (1–180 aa.) = YB-1-CSD (1–180 aa.) (Homo sapiens (Human), UniProt P67809); assay: EMSA; in presence of ssDNA (M13, stem-loop or C20); tests mixing/cooperative co-association on nucleic acid, not direct binding
Chain of YB-1-CSD (1–180 aa.) (P67809 1-180): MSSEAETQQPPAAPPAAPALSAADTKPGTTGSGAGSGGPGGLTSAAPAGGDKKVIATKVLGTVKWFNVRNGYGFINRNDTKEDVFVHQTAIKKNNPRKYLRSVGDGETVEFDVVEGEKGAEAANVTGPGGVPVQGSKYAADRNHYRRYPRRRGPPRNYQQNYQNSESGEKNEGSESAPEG

Binder | binding result (Lin28-CSD (32–136 aa.)) | binding result (YB-1-CSD (1–180 aa.))
B1 | no binding | –
B2 | – | no binding
B3 | – | no binding
